Assay results from patent publication US20200239570A1 (CRESCENDO BIOLOGICS, published 2020).

B1: Humabody VH 2.13 (VHH)
VHH: EVQLVESGGGVVRPGGSLRLSCAASGFTFDDYAMSWVRQAPGKGLEWVSGITWNRGSTGYADSVKGRFTISRDNAKNSLYLQMNSLRAEDTALYYCVRDKYSYAWSYDDFDIWGQGTMVTVSS
notes: human VH single domain antibody
B2: Humabody VH 2.39 (VHH)
VHH: EVQLVESGGGVVRPGGSLRLSCAASGFTFDDYAESWVRQAPGKGLEWVSGITWNGGSTGYADSVKDRFTISRDNAKNSLYLQMNSLRAEDTALYYCVRDKYSYAWSYDGFDIWGQGTMVTVSS
notes: as for B1
B3: Humabody VH 2.53 (VHH)
VHH: EVQLVESGGGVVRPGGSLRLSCAASGFTFDDYAMSWVRQAPGKGLEWVSGITWNGGSTGYADSVKDRFTISRDNAKNSLYLQMNSLRAEDTALYYCVRDKYSYAWSYDDFDIWGQGTMVTVSS
notes: as for B1
B4: Humabody VH 2.27 (VHH)
VHH: EVQLVESGGGVVRPGGSLRLSCAASGFTFDDYAMSWVRQAPGKGLEWVSGITWNAGSTGYADSVKDRFTISRDNAKNSLYLQMNSLRAEDTALYYCVRDKYSYAWSYDDFDIWGQGTMVTVSS
notes: as for B1
B5: Humabody VH 2.37 (VHH)
VHH: EVQLVESGGGVVRPGGSLRLSCAASGFTFDDYALSWVRQAPGKGLEWVSGITWNGGSTGYADSVKDRFTISRDNAKNSLYLQMNSLRAEDTALYYCVRDKYSYAWSYDGFDIWGQGTMVTVSS
notes: as for B1
B6: Humabody VH 2.52 (VHH)
VHH: EVQLVESGGGVVRPGGSLRLSCAASGFTFDDYAMSWVRQAPGKGLEWVSGITWNGGSTGYADSVKDRFTISRDNAKNSLYLQMNSLRAEDTALYYCVRDKYSYAWSYDVFDIWGQGTMVTVSS
notes: as for B1
B7: Humabody VH 1.26 (VHH)
VHH: EVQLVESGGGLVQPGRSLRLSCAASGFTFDDYAMHWVRQAPGKDLEWVSGISWNGGSMGYADSVKGRFTISRDNAKNSLYLQMNSLRAEDTALYYCVREKGPGLTGSTADYYGLDAWGQGTMVTVSS
notes: as for B1
B8: Humabody VH 1.48 (VHH)
VHH: EVQLVESGGGLVQPGRSLRLSCAASGFTFDDYALHWVRQAPGKDLEWVSGISWNSGSQGYADSVKGRFTISRDNAKNSLYLQMNSLRAEDTALYYCVREKGPGLTGSTADYYGLDAWGQGTMVTVSS
notes: as for B1
B9: Humabody VH 1.33 (VHH)
VHH: EVQLVESGGGLVQPGRSLRLSCAASGFTFDDYAMHWVRQAPGKDLEWVSGISWNGGSYGYADSVKGRFTISRDNAKNSLYLQMNSLRAEDTALYYCVREKGPGLTGSTADYYGLDAWGQGTMVTVSS
notes: as for B1
B10: Humabody VH 1.50 (VHH)
VHH: EVQLVESGGGLVQPGRSLRLSCAASGFTFDDYAFHWVRQAPGKDLEWVSGISWNAGSQGYADSVKGRFTISRDNAKNSLYLQMNSLRAEDTALYYCVREKGPGLTGSTADYYGLDAWGQGTMVTVSS
notes: as for B1
B11: Humabody VH 1.37 (VHH)
VHH: EVQLVESGGGLVQPGRSLRLSCAASGFTFDDYAFHWVRQAPGKDLEWVSGISWNGGSMGYADSVKGRFTISRDNAKNSLYLQMNSLRAEDTALYYCVREKGPGLTGSTADYYGLDAWGQGTMVTVSS
notes: as for B1
B12: Humabody VH 1.40 (VHH)
VHH: EVQLVESGGGLVQPGRSLRLSCAASGFTFDDYALHWVRQAPGKDLEWVSGISWNGGSQGYADSVKGRFTISRDNAKNSLYLQMNSLRAEDTALYYCVREKGPGLTGSTADYYGLDAWGQGTMVTVSS
notes: as for B1
B13: Humabody VH 1.44 (VHH)
VHH: EVQLVESGGGLVQPGRSLRLSCAASGFTFDDYALHWVRQAPGKDLEWVSGISWNSGSYGYADSVKGRFTISRDNAKNSLYLQMNSLRAEDTALYYCVREKGPGLTGSTADYYGLDAWGQGTMVTVSS
notes: as for B1
B14: Humabody VH 1.34 (VHH)
VHH: EVQLVESGGGLVQPGRSLRLSCAASGFTFDDYAMHWVRQAPGKDLEWVSGISWNGGSQGYADSVKGRFTISRDNAKNSLYLQMNSLRAEDTALYYCVREKGPGLTGSTADYYGLDAWGQGTMVTVSS
notes: as for B1
B15: Humabody VH 1.47 (VHH)
VHH: EVQLVESGGGLVQPGRSLRLSCAASGFTFDDYAFHWVRQAPGKDLEWVSGISWNSGSYGYADSVKGRFTISRDNAKNSLYLQMNSLRAEDTALYYCVREKGPGLTGSTADYYGLDAWGQGTMVTVSS
notes: as for B1

Assays:
[1] = biological target: T1, recombinant human PD-1 Fc chimera (human, UniProt Q15116 25-167); test: BLI (Octet), PD-1-huFc on biosensor, 1:1 fit
T1 construct: Bought (R&D 1086-PD); Labelled with europium cryptate in the PD-L2 HTRF assay; also called human PD-1 (R&D Systems cat no. 1086-PD); human PD-1-huFc; not shown: human Fc of the bought chimera
Method: Binding kinetics of clones to human PD-1-huFc were measured in real-time bio-layer interferometer based biosensor Octet (ForteBio). Recombinant human PD-1-huFc was either immobilized by standard amine coupling to amine reactive biosensors in 10 mM sodium acetate at pH 5.0 or capture by protein G biosensors (ForteBio). All the binding studies were performed in HBS-ET Octet kinetics buffer. Biosensors were always washed in Octet kinetics buffer in between different steps. A seven point, two-fold dilution series of each Humabody® VH was made with a top concentration in range 100-30 nM. The contact time for each of the association steps was varied between 180-300 seconds and the dissociation step was varied between 400-600 seconds. Kinetic association (kₐ) and dissociation (kd) rate constants were determined by processing and fitting the data to a 1:1 binding model using ForteBio Analysis software.

[2] = biological target: T2, human PD-1 expressed on cells (CHO human PD-1 cells) (human, UniProt Q15116 21-288); test: FMAT epitope competition on CHO human PD-1 cells; competitor 2 nM 2.1-Strep tagged protein
T2 construct: CHO cells in the FMAT assays; Jurkat reporter cells in the reporter assay; primary CD4+ T cells in the mixed lymphocyte reaction; also called CHO TREX human PD1 cell line; CHO PD-1
Method: (§1) For the epitope competition assay reagents were prepared in FMAT assay buffer. […] Plates were incubated for a minimum of 1.5 hours at room temperature then fluorescence measured in the FL2 (502 nm-537 nm) and FL5 (677-800 nm) channels on the Mirrorball plate reader (TTP) following excitation at 488 nm and 640 nm. Data was expressed as a % of the total binding control (i.e. % control) after subtraction of the background signal determined from the non-specific binding control wells.

[3] = biological target: T2, human PD-1 expressed on cells (CHO …); test: FMAT epitope competition on CHO human PD-1 cells; competitor 2 nM 1.1-Strep tagged protein
Method: as §1

[4] = biological target: T1, recombinant human PD-1 Fc chimera; test: SPR (Biacore T200), PD-1-huFc amine-coupled to CM5, single cycle kinetics, 1:1 fit
Method: Binding kinetics of certain VH single domain antibodies binding to human PD-1-huFc were measured by surface plasmon resonance (SPR) technology using Biacore T200 instrument (GE Healthcare). Recombinant human PD-1-huFc was immobilized by standard amine coupling to CM5 sensorschip (GE Healthcare) using 0.01 mg/ml solution of antigen in 10 mM sodium acetate at pH 5.5. For the reference flow cell, a blank immobilisation was carried out. Single cycle kinetics assays were used to study the interaction, a five point, three-fold dilution series of each Humabody® was made with a top concentration of 30 nM. The binding kinetics were followed by flowing the Humabody® over the chip surface in HBS EP+ buffer at a flow rate of 30 μl/min. The contact time for each of the association steps was 180 seconds and the dissociation step was varied between 1200-3600 seconds. The data was fitted to a 1:1 binding model after double reference subtraction using the Biacore T200 Evaluation software.

T1 sequence (Q15116 25-167, change not shown): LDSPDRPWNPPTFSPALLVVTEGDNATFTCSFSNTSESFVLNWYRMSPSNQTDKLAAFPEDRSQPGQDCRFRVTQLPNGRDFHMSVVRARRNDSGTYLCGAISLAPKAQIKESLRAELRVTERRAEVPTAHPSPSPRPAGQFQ
T2 sequence (Q15116 21-288): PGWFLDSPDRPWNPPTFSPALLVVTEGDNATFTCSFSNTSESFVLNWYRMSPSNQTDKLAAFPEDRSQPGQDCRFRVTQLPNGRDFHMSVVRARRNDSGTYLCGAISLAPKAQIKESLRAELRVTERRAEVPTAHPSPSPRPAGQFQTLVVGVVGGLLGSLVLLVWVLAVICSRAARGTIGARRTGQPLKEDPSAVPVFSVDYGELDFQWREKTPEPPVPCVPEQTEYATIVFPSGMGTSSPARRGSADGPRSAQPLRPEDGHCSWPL

Binder	Kd [1]	koff [1]	kon [1]	IC50 [2]	IC50 [3]	Kd [4]	koff [4]	kon [4]
B1	25 nM	0.035 s⁻¹	1.3e+06 M⁻¹ s⁻¹	–	–	–	–	–
B2	1.6 nM	0.00059 s⁻¹	370000 M⁻¹ s⁻¹	–	–	–	–	–
B3	16 nM	0.017 s⁻¹	1e+06 M⁻¹ s⁻¹	14 nM	7 nM	–	–	–
B4	–	–	–	13 nM	9 nM	–	–	–
B5	3.4 nM	0.0015 s⁻¹	450000 M⁻¹ s⁻¹	–	–	–	–	–
B6	3.3 nM	0.0022 s⁻¹	670000 M⁻¹ s⁻¹	21 nM	6.5 nM	–	–	–
B7	–	–	–	–	8 nM	7.94 nM	0.00211 s⁻¹	265000 M⁻¹ s⁻¹
B8	–	–	–	–	–	16.2 nM	0.00291 s⁻¹	180000 M⁻¹ s⁻¹
B9	2 nM	0.00074 s⁻¹	370000 M⁻¹ s⁻¹	–	2.5 nM	–	–	–
B10	–	–	–	–	–	14.3 nM	0.00229 s⁻¹	160000 M⁻¹ s⁻¹
B11	5.5 nM	0.0013 s⁻¹	240000 M⁻¹ s⁻¹	–	7.5 nM	–	–	–
B12	–	–	–	–	–	5.98 nM	0.00145 s⁻¹	243000 M⁻¹ s⁻¹
B13	–	–	–	–	–	9.1 nM	0.00204 s⁻¹	224000 M⁻¹ s⁻¹
B14	3.6 nM	0.0007 s⁻¹	190000 M⁻¹ s⁻¹	–	6.5 nM	–	–	–
B15	–	–	–	–	–	10.2 nM	0.00254 s⁻¹	248000 M⁻¹ s⁻¹
